This passage reports binding results from PMC12421817, “c-di-GMP regulates bacterial NAD biosynthesis via targeting the transcriptional repressor NadR” (mBio, 2025).

Numbering of substitutions follows the chain as printed.

Data set [1] addresses T1, NadR H80A H80A (Salmonella enterica serovar Typhimurium) (UniProt P24518).
T1 sequence: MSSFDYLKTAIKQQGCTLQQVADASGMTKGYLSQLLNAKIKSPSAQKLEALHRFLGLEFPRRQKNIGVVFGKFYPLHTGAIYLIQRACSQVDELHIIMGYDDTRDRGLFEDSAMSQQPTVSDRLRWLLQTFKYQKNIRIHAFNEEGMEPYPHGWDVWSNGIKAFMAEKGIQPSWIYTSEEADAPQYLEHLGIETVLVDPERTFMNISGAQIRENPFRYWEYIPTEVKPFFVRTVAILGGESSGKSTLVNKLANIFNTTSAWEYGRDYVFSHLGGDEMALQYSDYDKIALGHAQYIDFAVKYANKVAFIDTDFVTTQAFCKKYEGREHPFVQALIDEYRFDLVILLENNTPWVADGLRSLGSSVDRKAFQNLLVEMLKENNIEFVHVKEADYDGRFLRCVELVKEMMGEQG
Nature of the data set: EMSA. The settings on record: EMSA: 50 ng DNA, 20 mM Tris pH 7.5, 100 mM NaCl, 10% glycerol, 4 mM MgCl2, 1% NP-40, 1 mM DTT, 25 uL, 20 min room temperature; 6% native PAGE, 0.5x TBE, SYBR …. (Mobility shift assays separate free from complexed probe on a gel.)

Data set [2] deals with T2, NadR R212A R212A (Salmonella enterica serovar Typhimurium) (UniProt P24518).
T2 sequence: T1 sequence with A80H, R212A
The data set can be described thus: EMSA. The settings on record: EMSA: 50 ng DNA, 20 mM Tris pH 7.5, 100 mM NaCl, 10% glycerol, 4 mM MgCl2, 1% NP-40, 1 mM DTT, 25 uL, 20 min room temperature; 6% native PAGE, 0.5x TBE, SYBR ….

“GGTTCTTGTTTAATTTACTAAACATGGTTGCGGCAGATTAGCACTATATGGCGCTAAAAAGCACGTTATGATTTCGCTGGTGTTGTGCTTATTAAACATAAAATAAAAATACGGCGAGAGATAAACGGCAAAAAATATTTTATAGGGCAGGGTGTTAGCGTCGGATTTTGTAGTGAAATAAAGATGCTGTTAGGTTACTC (double strand) [nadB promoter]”: the binding entry in data set [1] and in data set [2] was “binds” each time.
As to “GCTCATCGTGGCTTCTCGTTTTACTGACTTAACGAAACAACCGAATGAAAGCGTAATAAACGCCACAATCGGTTAATTTGTTTTATATGCTAAACAAGATAGCTGATTCAATAAGGAAAGTCACAATAATTACGTAGCCCCGTATCTGATGGCGGCGTAACGTCTTATCTGGCCTACGTGAGCGGTGCCGTCTGTAGGCCTGAT (double strand) [nadA-pnuC promoter]”, the binding result in data set [1] and in data set [2] was “binds” in each case.
